Data from patent US11807877.

Key:
[1] = biological target: Staphylococcus aureus Cas9, wild-type (Staphylococcus aureus) (UniProt J7RUA5); assay: cell-based or functional assay
[2] = biological target: Streptococcus pyogenes Cas9, wild-type (Streptococcus pyogenes) (UniProt Q99ZW2); assay: cell-based or functional assay
Sequence of UniProt Q99ZW2 (Q99ZW2 whole entry): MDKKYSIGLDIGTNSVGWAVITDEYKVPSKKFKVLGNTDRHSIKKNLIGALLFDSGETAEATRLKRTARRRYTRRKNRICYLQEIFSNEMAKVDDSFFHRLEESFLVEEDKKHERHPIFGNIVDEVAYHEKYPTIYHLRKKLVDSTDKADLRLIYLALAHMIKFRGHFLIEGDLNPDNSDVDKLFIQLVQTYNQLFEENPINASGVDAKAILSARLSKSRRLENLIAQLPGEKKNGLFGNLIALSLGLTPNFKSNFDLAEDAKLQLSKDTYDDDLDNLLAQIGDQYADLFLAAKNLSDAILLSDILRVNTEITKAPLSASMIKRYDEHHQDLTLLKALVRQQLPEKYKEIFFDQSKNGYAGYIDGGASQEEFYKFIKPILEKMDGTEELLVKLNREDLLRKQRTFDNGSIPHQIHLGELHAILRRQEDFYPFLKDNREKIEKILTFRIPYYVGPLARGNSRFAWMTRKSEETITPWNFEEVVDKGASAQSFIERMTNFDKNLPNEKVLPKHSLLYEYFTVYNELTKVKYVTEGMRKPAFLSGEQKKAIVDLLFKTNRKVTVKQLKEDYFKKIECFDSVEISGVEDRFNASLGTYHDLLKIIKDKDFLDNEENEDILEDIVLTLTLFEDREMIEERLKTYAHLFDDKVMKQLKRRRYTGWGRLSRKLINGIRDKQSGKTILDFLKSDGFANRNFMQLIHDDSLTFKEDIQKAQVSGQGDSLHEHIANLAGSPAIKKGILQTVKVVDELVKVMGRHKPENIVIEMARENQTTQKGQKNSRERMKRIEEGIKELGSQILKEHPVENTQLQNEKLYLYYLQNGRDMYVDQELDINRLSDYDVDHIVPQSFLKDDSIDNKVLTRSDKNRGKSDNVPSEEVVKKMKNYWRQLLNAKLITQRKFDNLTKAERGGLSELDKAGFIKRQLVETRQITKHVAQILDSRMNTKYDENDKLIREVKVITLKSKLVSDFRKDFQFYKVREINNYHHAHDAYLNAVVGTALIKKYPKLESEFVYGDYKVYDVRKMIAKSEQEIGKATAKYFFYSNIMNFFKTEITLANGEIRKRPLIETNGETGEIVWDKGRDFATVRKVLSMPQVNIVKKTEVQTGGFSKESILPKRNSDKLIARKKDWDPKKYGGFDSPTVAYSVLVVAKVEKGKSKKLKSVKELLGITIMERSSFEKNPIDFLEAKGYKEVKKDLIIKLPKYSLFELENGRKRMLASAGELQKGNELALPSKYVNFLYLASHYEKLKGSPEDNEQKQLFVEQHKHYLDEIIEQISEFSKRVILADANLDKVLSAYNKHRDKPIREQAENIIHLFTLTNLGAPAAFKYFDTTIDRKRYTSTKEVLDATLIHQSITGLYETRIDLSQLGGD

Sequence of UniProt J7RUA5 (J7RUA5 2-1053, tags left off): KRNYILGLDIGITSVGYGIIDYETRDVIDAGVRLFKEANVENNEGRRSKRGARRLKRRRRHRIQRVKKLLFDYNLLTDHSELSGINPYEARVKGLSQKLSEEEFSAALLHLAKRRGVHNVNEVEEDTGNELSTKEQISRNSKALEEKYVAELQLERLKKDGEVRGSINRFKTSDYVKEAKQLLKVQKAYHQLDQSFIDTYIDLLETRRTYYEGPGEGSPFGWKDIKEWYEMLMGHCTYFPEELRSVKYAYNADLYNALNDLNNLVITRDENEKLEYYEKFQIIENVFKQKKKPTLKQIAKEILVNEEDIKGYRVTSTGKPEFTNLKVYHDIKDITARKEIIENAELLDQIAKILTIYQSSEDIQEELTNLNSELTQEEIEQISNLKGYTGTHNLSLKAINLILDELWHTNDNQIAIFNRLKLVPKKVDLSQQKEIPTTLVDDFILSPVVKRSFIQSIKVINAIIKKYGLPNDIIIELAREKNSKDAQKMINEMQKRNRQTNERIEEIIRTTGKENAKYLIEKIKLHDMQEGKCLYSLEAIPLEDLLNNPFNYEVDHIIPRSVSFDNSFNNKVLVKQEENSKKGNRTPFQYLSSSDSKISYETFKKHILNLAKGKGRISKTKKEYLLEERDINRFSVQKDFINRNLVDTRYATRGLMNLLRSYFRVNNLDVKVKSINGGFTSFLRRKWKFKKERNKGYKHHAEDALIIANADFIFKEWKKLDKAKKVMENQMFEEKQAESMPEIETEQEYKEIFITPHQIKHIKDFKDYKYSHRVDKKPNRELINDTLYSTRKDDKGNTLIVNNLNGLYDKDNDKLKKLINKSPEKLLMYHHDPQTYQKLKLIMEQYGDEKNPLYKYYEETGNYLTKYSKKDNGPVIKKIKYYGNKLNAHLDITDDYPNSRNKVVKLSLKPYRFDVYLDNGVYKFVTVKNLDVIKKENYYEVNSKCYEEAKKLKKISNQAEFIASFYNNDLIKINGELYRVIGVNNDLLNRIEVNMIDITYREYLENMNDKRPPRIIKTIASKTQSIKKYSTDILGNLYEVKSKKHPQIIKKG

| Substance | inhibition of Cas9 cleavage activity in the quenched FRET fluorescence assay [1] [µM] | inhibition of Cas9 cleavage activity in the quenched FRET fluorescence assay [2] [µM] |
| --- | --- | --- |
| AcrIIA4 anti-CRISPR protein | > 10 | < 0.03 |
| AcrIIC1 anti-CRISPR protein | > 10 | > 10 |
